In patent US20210230570:

Tests used:
[1] = target: Factor X (FX), substrate zymogen, P00742
[2] = target: antithrombin III (plasma purified human AT-III), in complex with unfractionated heparin
[3] = target: Antithrombin III (plasma purified human AT-III, Molecular Innovations), as AT-III/UFH complex
[4] = target: plasma purified human AT-III (antithrombin III), in complex with full-length unfractionated heparin (AT-III/UFH)
[5] = target: plasma purified human antithrombin III (AT-III) in complex with unfractionated heparin (AT-III/UFH)

Sequence of Factor X (FX), substrate zymogen, P00742 (P00742 whole entry, looked up): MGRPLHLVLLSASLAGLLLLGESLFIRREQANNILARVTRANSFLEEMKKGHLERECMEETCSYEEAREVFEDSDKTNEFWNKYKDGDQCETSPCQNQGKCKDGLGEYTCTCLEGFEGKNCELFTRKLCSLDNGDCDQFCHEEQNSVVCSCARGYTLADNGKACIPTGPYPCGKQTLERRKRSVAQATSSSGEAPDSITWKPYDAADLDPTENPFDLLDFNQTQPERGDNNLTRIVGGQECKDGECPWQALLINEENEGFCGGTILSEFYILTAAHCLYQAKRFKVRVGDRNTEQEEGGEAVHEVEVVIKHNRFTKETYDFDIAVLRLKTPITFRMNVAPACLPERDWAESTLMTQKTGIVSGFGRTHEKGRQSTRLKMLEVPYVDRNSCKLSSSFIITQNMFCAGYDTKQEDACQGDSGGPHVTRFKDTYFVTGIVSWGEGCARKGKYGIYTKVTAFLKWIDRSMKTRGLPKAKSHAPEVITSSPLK
Sequence of Factor X (FX), P00742 (P00742 whole entry, looked up): as above
Sequence of Factor X, P00742 (P00742 whole entry, looked up): as above

B1: FIXa-R318Y/R338E/R403E/E410N (protein)
chain 1: YNSGKLEEFVQGNLERECMEEKCSFEEAREVFENTERTTEFWKQYVDGDQCESNPCLNGGSCKDDINSYECWCPFGFEGKNCELDVTCNIKNGRCEQFCKNSADNKVVCSCTEGYRLAENQKSCEPAVPFPCGRVSVSQTSKLTR
chain 2: VVGGEDAKPGQFPWQVVLNGKVDAFCGGSIVNEKWIVTAAHCVETGVKITVVAGEHNIEETEHTEQKRNVIRIIPHHNYNAAINKYNHDIALLELDEPLVLNSYVTPICIADKEYTNIFLKFGSGYVSGWGRVFHKGYSALVLQYLRVPLVDRATCLESTKFTIYNNMFCAGFHEGGRDSCQGDSGGPHVTEVEGTSFLTGIISWGEECAMKGKYGIYTKVSEYVNWIKNKTKLT
catalytic activity (kcat/KM) for activation of FX in the Xase complex (FVIIIa, PC/PS vesicles, Ca2+), fluorogenic FXa read-out [1]: displayed some of the greatest increases in catalytic activity
kcat/KM (M^-1s^-1), FX activation by FIXa in the Xase complex (Factor X (FX), P00742): 1.5e+08 M⁻¹ s⁻¹
KM (Catalytic activity of FIXa variants) (Factor X, P00742): 0.0455 µM
K0.5 [2]: 5.88 µM

B2: FIXa-R318Y/R338E/T343R/R403E/E410N (protein)
chain 1: YNSGKLEEFVQGNLERECMEEKCSFEEAREVFENTERTTEFWKQYVDGDQCESNPCLNGGSCKDDINSYECWCPFGFEGKNCELDVTCNIKNGRCEQFCKNSADNKVVCSCTEGYRLAENQKSCEPAVPFPCGRVSVSQTSKLTR
chain 2: VVGGEDAKPGQFPWQVVLNGKVDAFCGGSIVNEKWIVTAAHCVETGVKITVVAGEHNIEETEHTEQKRNVIRIIPHHNYNAAINKYNHDIALLELDEPLVLNSYVTPICIADKEYTNIFLKFGSGYVSGWGRVFHKGYSALVLQYLRVPLVDRATCLESTKFRIYNNMFCAGFHEGGRDSCQGDSGGPHVTEVEGTSFLTGIISWGEECAMKGKYGIYTKVSEYVNWIKNKTKLT
catalytic activity (kcat/KM) for activation of FX in the Xase complex (FVIIIa, PC/PS vesicles, Ca2+), fluorogenic FXa read-out [1]: displayed some of the greatest increases in catalytic activity
KM (Factor X (FX), P00742): 0.0247 µM
KM (nM); Catalytic activity of FIXa variants (KM) (Factor X (FX), P00742): 22.3 nM
kcat of FX activation by FIXa in the Xase complex (FVIIIa, PC/PS vesicles, Ca2+) (Factor X (FX), P00742): 9.7 s⁻¹
kcat/KM (Factor X (FX), P00742): 5.4e+08 M⁻¹ s⁻¹
K0.5-mut/K0.5-wt (against Catalyst Biosciences WT FIXa) [3]: > 517

B3: FIXa-R318Y/R338E/T343R/E410N (protein)
chain 1: YNSGKLEEFVQGNLERECMEEKCSFEEAREVFENTERTTEFWKQYVDGDQCESNPCLNGGSCKDDINSYECWCPFGFEGKNCELDVTCNIKNGRCEQFCKNSADNKVVCSCTEGYRLAENQKSCEPAVPFPCGRVSVSQTSKLTR
chain 2: VVGGEDAKPGQFPWQVVLNGKVDAFCGGSIVNEKWIVTAAHCVETGVKITVVAGEHNIEETEHTEQKRNVIRIIPHHNYNAAINKYNHDIALLELDEPLVLNSYVTPICIADKEYTNIFLKFGSGYVSGWGRVFHKGYSALVLQYLRVPLVDRATCLESTKFRIYNNMFCAGFHEGGRDSCQGDSGGPHVTEVEGTSFLTGIISWGEECAMKGKYGIYTKVSRYVNWIKNKTKLT
catalytic activity (kcat/KM) for activation of FX in the Xase complex (FVIIIa, PC/PS vesicles, Ca2+), fluorogenic FXa read-out [1]: displayed some of the greatest increases in catalytic activity
KM (Factor X (FX), P00742): 0.0164 µM
kcat of FX activation by FIXa in the Xase complex (FVIIIa, PC/PS vesicles, Ca2+) (Factor X (FX), P00742): 4.9 s⁻¹

B4: FIXa-K247N/N249S/R318Y/R338E/T343R/R403E/E410N (protein)
chain 1: YNSGKLEEFVQGNLERECMEEKCSFEEAREVFENTERTTEFWKQYVDGDQCESNPCLNGGSCKDDINSYECWCPFGFEGKNCELDVTCNIKNGRCEQFCKNSADNKVVCSCTEGYRLAENQKSCEPAVPFPCGRVSVSQTSKLTR
chain 2: VVGGEDAKPGQFPWQVVLNGKVDAFCGGSIVNEKWIVTAAHCVETGVKITVVAGEHNIEETEHTEQNRSVIRIIPHHNYNAAINKYNHDIALLELDEPLVLNSYVTPICIADKEYTNIFLKFGSGYVSGWGRVFHKGYSALVLQYLRVPLVDRATCLESTKFRIYNNMFCAGFHEGGRDSCQGDSGGPHVTEVEGTSFLTGIISWGEECAMKGKYGIYTKVSEYVNWIKNKTKLT
catalytic activity (kcat/KM) for activation of FX in the Xase complex (FVIIIa, PC/PS vesicles, Ca2+), fluorogenic FXa read-out [1]: improved activity when combined with other mutations
KM (Factor X (FX), P00742): 0.0292 µM
kcat of FX activation by FIXa in the Xase complex (FVIIIa, PC/PS vesicles, Ca2+) (Factor X (FX), P00742): 10.6 s⁻¹

B5: FIXa-K247N/N249S/R338E/T343R/R403E (protein)
chain 1: YNSGKLEEFVQGNLERECMEEKCSFEEAREVFENTERTTEFWKQYVDGDQCESNPCLNGGSCKDDINSYECWCPFGFEGKNCELDVTCNIKNGRCEQFCKNSADNKVVCSCTEGYRLAENQKSCEPAVPFPCGRVSVSQTSKLTR
chain 2: VVGGEDAKPGQFPWQVVLNGKVDAFCGGSIVNEKWIVTAAHCVETGVKITVVAGEHNIEETEHTEQNRSVIRIIPHHNYNAAINKYNHDIALLELDEPLVLNSYVTPICIADKEYTNIFLKFGSGYVSGWGRVFHKGRSALVLQYLRVPLVDRATCLESTKFRIYNNMFCAGFHEGGRDSCQGDSGGPHVTEVEGTSFLTGIISWGEECAMKGKYGIYTKVSEYVNWIKEKTKLT
catalytic activity (kcat/KM) for activation of FX in the Xase complex (FVIIIa, PC/PS vesicles, Ca2+), fluorogenic FXa read-out [1]: improved activity when combined with other mutations
kcat (Factor X (FX), P00742): 14.6 s⁻¹
kcat/KM (Factor X (FX), P00742): 5.6e+08 M⁻¹ s⁻¹

B6: FIXa-R318Y/R338E/E410N (protein)
chain 1: YNSGKLEEFVQGNLERECMEEKCSFEEAREVFENTERTTEFWKQYVDGDQCESNPCLNGGSCKDDINSYECWCPFGFEGKNCELDVTCNIKNGRCEQFCKNSADNKVVCSCTEGYRLAENQKSCEPAVPFPCGRVSVSQTSKLTR
chain 2: VVGGEDAKPGQFPWQVVLNGKVDAFCGGSIVNEKWIVTAAHCVETGVKITVVAGEHNIEETEHTEQKRNVIRIIPHHNYNAAINKYNHDIALLELDEPLVLNSYVTPICIADKEYTNIFLKFGSGYVSGWGRVFHKGYSALVLQYLRVPLVDRATCLESTKFTIYNNMFCAGFHEGGRDSCQGDSGGPHVTEVEGTSFLTGIISWGEECAMKGKYGIYTKVSRYVNWIKNKTKLT
catalytic activity (kcat/KM) for activation of FX in the Xase complex (FVIIIa, PC/PS vesicles, Ca2+), fluorogenic FXa read-out [1]: displayed some of the greatest increases in catalytic activity
kcat/KM (M^-1s^-1), FX activation by FIXa in the Xase complex (Factor X (FX), P00742): 3.4e+08 M⁻¹ s⁻¹
kcat/KM for FX activation (Xase assay with FVIIIa, PC/PS vesicles, Ca2+) (Factor X (FX), P00742): 3.4e+08 M⁻¹ s⁻¹
KM (Catalytic activity of FIXa variants) (Factor X, P00742): 0.0142 µM
K0.5 [2]: 3.46 µM
K0.5-mut/K0.5-wt [2]: 179

B7: FIXa-K228N/K247N/N249S (protein)
chain 1: YNSGKLEEFVQGNLERECMEEKCSFEEAREVFENTERTTEFWKQYVDGDQCESNPCLNGGSCKDDINSYECWCPFGFEGKNCELDVTCNIKNGRCEQFCKNSADNKVVCSCTEGYRLAENQKSCEPAVPFPCGRVSVSQTSKLTR
chain 2: VVGGEDAKPGQFPWQVVLNGKVDAFCGGSIVNEKWIVTAAHCVETGVNITVVAGEHNIEETEHTEQNRSVIRIIPHHNYNAAINKYNHDIALLELDEPLVLNSYVTPICIADKEYTNIFLKFGSGYVSGWGRVFHKGRSALVLQYLRVPLVDRATCLRSTKFTIYNNMFCAGFHEGGRDSCQGDSGGPHVTEVEGTSFLTGIISWGEECAMKGKYGIYTKVSRYVNWIKEKTKLT
catalytic activity (kcat/KM) for activation of FX in the Xase complex (FVIIIa, PC/PS vesicles, Ca2+), fluorogenic FXa read-out [1]: demonstrated close to wild-type activity
K0.5-mut/K0.5-wt (against Catalyst Biosciences WT FIXa) [4]: 4.4

B8: FIXa R318Y/R338E/R403E/E410N (mature FIX numbering) (protein)
chain 1: YNSGKLEEFVQGNLERECMEEKCSFEEAREVFENTERTTEFWKQYVDGDQCESNPCLNGGSCKDDINSYECWCPFGFEGKNCELDVTCNIKNGRCEQFCKNSADNKVVCSCTEGYRLAENQKSCEPAVPFPCGRVSVSQTSKLTR
chain 2: VVGGEDAKPGQFPWQVVLNGKVDAFCGGSIVNEKWIVTAAHCVETGVKITVVAGEHNIEETEHTEQKRNVIRIIPHHNYNAAINKYNHDIALLELDEPLVLNSYVTPICIADKEYTNIFLKFGSGYVSGWGRVFHKGYSALVLQYLRVPLVDRATCLESTKFTIYNNMFCAGFHEGGRDSCQGDSGGPHVTEVEGTSFLTGIISWGEECAMKGKYGIYTKVSEYVNWIKNKTKLT
K0.5 [5]: 5.88 µM

B9: FIXa A103N/N105S/R318Y/R338E/R403E/E410N (mature FIX numbering) (protein)
chain 1: YNSGKLEEFVQGNLERECMEEKCSFEEAREVFENTERTTEFWKQYVDGDQCESNPCLNGGSCKDDINSYECWCPFGFEGKNCELDVTCNIKNGRCEQFCKNSNDSKVVCSCTEGYRLAENQKSCEPAVPFPCGRVSVSQTSKLTR
chain 2: VVGGEDAKPGQFPWQVVLNGKVDAFCGGSIVNEKWIVTAAHCVETGVKITVVAGEHNIEETEHTEQKRNVIRIIPHHNYNAAINKYNHDIALLELDEPLVLNSYVTPICIADKEYTNIFLKFGSGYVSGWGRVFHKGYSALVLQYLRVPLVDRATCLESTKFTIYNNMFCAGFHEGGRDSCQGDSGGPHVTEVEGTSFLTGIISWGEECAMKGKYGIYTKVSEYVNWIKNKTKLT
K0.5 [5]: 9.19 µM

B10: FIXa D104N/K106S/R318Y/R338E/R403E/E410N (mature FIX numbering) (protein)
chain 1: YNSGKLEEFVQGNLERECMEEKCSFEEAREVFENTERTTEFWKQYVDGDQCESNPCLNGGSCKDDINSYECWCPFGFEGKNCELDVTCNIKNGRCEQFCKNSANNSVVCSCTEGYRLAENQKSCEPAVPFPCGRVSVSQTSKLTR
chain 2: VVGGEDAKPGQFPWQVVLNGKVDAFCGGSIVNEKWIVTAAHCVETGVKITVVAGEHNIEETEHTEQKRNVIRIIPHHNYNAAINKYNHDIALLELDEPLVLNSYVTPICIADKEYTNIFLKFGSGYVSGWGRVFHKGYSALVLQYLRVPLVDRATCLESTKFTIYNNMFCAGFHEGGRDSCQGDSGGPHVTEVEGTSFLTGIISWGEECAMKGKYGIYTKVSEYVNWIKNKTKLT
K0.5 [5]: > 10 µM

B11: FIXa Y155F/R318Y/R338E/R403E/E410N (mature FIX numbering) (protein)
chain 1: YNSGKLEEFVQGNLERECMEEKCSFEEAREVFENTERTTEFWKQYVDGDQCESNPCLNGGSCKDDINSYECWCPFGFEGKNCELDVTCNIKNGRCEQFCKNSADNKVVCSCTEGYRLAENQKSCEPAVPFPCGRVSVSQTSKLTR
chain 2: VVGGEDAKPGQFPWQVVLNGKVDAFCGGSIVNEKWIVTAAHCVETGVKITVVAGEHNIEETEHTEQKRNVIRIIPHHNYNAAINKYNHDIALLELDEPLVLNSYVTPICIADKEYTNIFLKFGSGYVSGWGRVFHKGYSALVLQYLRVPLVDRATCLESTKFTIYNNMFCAGFHEGGRDSCQGDSGGPHVTEVEGTSFLTGIISWGEECAMKGKYGIYTKVSEYVNWIKNKTKLT
K0.5 [5]: > 10 µM

B12: FIXa A103N/N105S/Y155F/R318Y/R338E/R403E/E410N (mature FIX numbering) (protein)
chain 1: YNSGKLEEFVQGNLERECMEEKCSFEEAREVFENTERTTEFWKQYVDGDQCESNPCLNGGSCKDDINSYECWCPFGFEGKNCELDVTCNIKNGRCEQFCKNSNDSKVVCSCTEGYRLAENQKSCEPAVPFPCGRVSVSQTSKLTR
chain 2: VVGGEDAKPGQFPWQVVLNGKVDAFCGGSIVNEKWIVTAAHCVETGVKITVVAGEHNIEETEHTEQKRNVIRIIPHHNYNAAINKYNHDIALLELDEPLVLNSYVTPICIADKEYTNIFLKFGSGYVSGWGRVFHKGYSALVLQYLRVPLVDRATCLESTKFTIYNNMFCAGFHEGGRDSCQGDSGGPHVTEVEGTSFLTGIISWGEECAMKGKYGIYTKVSEYVNWIKNKTKLT
K0.5 [5]: > 10 µM
